From the supplement of paper PMC10126150
± gives the standard deviation of the averaged measurements.

Tested on: ATP
Experiment: switch fluorescence ratio, 500 uM ATP over buffer (Cy3 cluster intensity, sum of 5 cycles each) (fold (ratio)); higher = stronger signal-on switching upon ATP binding; sequences stand for … in TCGTCGGCAGCGTCAGATGTGTATAAGAGACAGTTTTTTTTTTTTTTTTTTTTTTTTT…TC
Details: aptamer strand: ATP DNA aptamer (quencher-CACCTGGGGGAGTATTGCGGAGGAAGG + anchor), 100 nM annealed; ATP concentration: 500 uM
Outline: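 Between each of five buffer/ATP cycles, the flow-cell was stripped with NaOH and re-annealed. Each cycle imaged Cy3-labelled switching-strand clusters, annealed to 100 nM quencher-labelled ATP aptamer on a modified Illumina MiSeq flow-cell, first in selection buffer and then after 15 min with 500 uM ATP at 22 °C. The fluorescence ratio is summed target-cycle over summed buffer-cycle Cy3 intensity per cluster, averaged per switch-domain sequence, with clusters outside 100-1000 RFU excluded.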
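Note: ATP exposure 15 min at 22 °C before imaging.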

Sequence	switch fluorescence ratio
GGTAGGAGAG	0.987 ± 0.0057
ACGCCAATGT	1.34 ± 0.076
TCAGCGTGTG	1.0181 ± 0.00046
TATGGGCGTC	0.999 ± 0.011
CAGGATGCCC	0.9871 ± 0.0066
TTTCAAAATT	0.994 ± 0.018
CGGTTTTTTC	1.03 ± 0.027
CGTGATTCAC	1.007 ± 0.0075
CAGTTGGAGC	0.981 ± 0.06
TATTTTGGTT	0.999 ± 0.015
AATTGTGTAC	1.052 ± 0.0018
CAAGTCTGGG	0.9879 ± 0.0059
CCTTTTTGT	0.993 ± 0.027
CGGGGCTGAA	0.991 ± 0.0089
GCTTTGCGCT	0.988 ± 0.015
GTTTTAGAGC	1.05 ± 0.025
TGCCTTTTCG	1.02 ± 0.057
CAAAGTAGGC	0.958 ± 0.018
ATGGTTTTGT	0.959 ± 0.022
TTATTTTGGT	1.01 ± 0.035
TCCGATTACG	1.22 ± 0.037
ACGAAATAGG	1.07 ± 0.035
TGGGGGGGTA	0.991 ± 0.026

Sequence	switch fluorescence ratio
CTCATCTAAT	0.9821 ± 0.0081
GGCGTGGGGG	1.051 ± 0.01
ATAAGCTTCT	1.09 ± 0.073
AAAATTGGAA	1 ± 0.03
AAAGTGGGCC	0.9593 ± 0.0049
TCGGGTCCGT	0.982 ± 0.027
AGTCGAGCGT	0.9976 ± 0.0034
GGGGGCCATC	1.003 ± 0.0017
CAAGCGGACT	1.06 ± 0.049
TTTATTTCTG	0.959 ± 0.02
TGTTATTAGT	1.01 ± 0.022
CTAGAATGAT	1.014 ± 0.0072
TCTGTTGGAC	0.997 ± 0.024
AGTTTGTGAC	0.989 ± 0.029
AAGAGGTTTG	0.949 ± 0.013
GCTCGCACAG	1.321 ± 0.0081
GGTCGCAGTT	0.999 ± 0.022
GGCAGCTGGG	0.946 ± 0.023
GTTGTATGTT	1.02 ± 0.039
ACTAATATAT	0.999 ± 0.04
TTTAGGCGGC	1.03 ± 0.023
TGGGCAGGGG	1.3 ± 0.57
TGATAGACAT	0.988 ± 0.019

Sequence	switch fluorescence ratio
GATACTGAAC	1.3 ± 0.024
CAAGTATTGT	0.999 ± 0.025
GGAGTCACTG	1.02 ± 0.017
ACGCATTACA	3.9 ± 1.6
GGTGTTGGG	1.01 ± 0.019
GGAACGTATT	1.0119 ± 8.1e-05
CCCGGCCCAG	1.05 ± 0.064
GAGGGTGTCA	0.995 ± 0.017
GGGCCAGGTA	0.985 ± 0.015
AGATATACGG	1.02 ± 0.034
TGACGTACCC	1.7 ± 0.05
CTGAGGCCCG	0.984 ± 0.05
GAGTGGGTCG	0.983 ± 0.024
CGATATCCAC	1.07 ± 0.013
AGTGTCGCCT	0.985 ± 0.019
CGGGTAATTC	1.128 ± 0.0039
AAGGGAAAAA	1.03 ± 0.092
CGGTGGTTGC	1.03 ± 0.11
AAATTTGGTA	1.04 ± 0.021
TGACAGGGGA	1.02 ± 0.033
GAAAGGCGGG	0.985 ± 0.0041
GTTATAAGGG	0.975 ± 0.03
TATTCGGCTG	0.997 ± 0.029

Sequence	switch fluorescence ratio
AGGAGTTCTT	0.989 ± 0.032
CTGGGAGTGT	0.9946 ± 0.0092
ATTTGAAGGT	1.01 ± 0.018
ACTGTATGTC	1.03 ± 0.014
ACCGCATCGT	1.21 ± 0.027
AGTATGGGTA	1 ± 0.018
ATTATACGGC	1.056 ± 0.0042
AAATACTTGC	1.14 ± 0.074
GCCGTTTTGG	1 ± 0.034
GTAAGACTAA	0.997 ± 0.011
TTTTTAGGAG	1 ± 0.035
ACGTAGTGCG	1 ± 0.023
AGTATTAGAG	0.983 ± 0.039
GAGTAGTGCT	1.03 ± 0.018
TAAGAATCGC	1.15 ± 0.2
AGTAAATGGA	0.9854 ± 0.0055
ACTGAAGATT	1.0263 ± 0.00089
AAAGGTTTTT	0.988 ± 0.016
AAAATCGGGT	1.03 ± 0.025
ATTTTCAGTT	1.01 ± 0.026
TTCTTAGGGA	0.9863 ± 0.0054
TAACAGTGTG	1.04 ± 0.046
AAGGAAGAAA	0.974 ± 0.068

Sequence	switch fluorescence ratio
GAATGTTCGG	0.999 ± 0.051
GGGTTAGGAA	0.991 ± 0.022
TACTCATTGT	1.03 ± 0.021
TTAAGGCTAA	1.03 ± 0.038
GGTCCTGCAA	1.76 ± 1.1
GATCGGGGTG	0.965 ± 0.021
GGTAATTATT	0.951 ± 0.067
TGGTTCGTTA	1 ± 0.05
TTTCTGGGGT	1.01 ± 0.054
GGCCTAAATT	0.989 ± 0.031
TACTAATGGA	1.01 ± 0.041
CAATGTGGGG	0.989 ± 0.056
GTGGTGATGT	1.02 ± 0.012
GACGTAAGTT	1.02 ± 0.018
ATCGTGAGGG	1 ± 0.053
TATTGTAGCT	1.01 ± 0.044
AGGGCGCGTT	0.9645 ± 0.0028
ATTCATTATT	0.9927 ± 0.0049
ACGGGGCGTT	1.01 ± 0.012
AATCATTCCG	1.07 ± 0.041
ATGTATACTT	1.09 ± 0.14
AAAAGAACGA	1.05 ± 0.074
AAAGAGGGGG	1.03 ± 0.049

Sequence	switch fluorescence ratio
ACATATGGGT	1.01 ± 0.039
TATTTGACG	1.02 ± 0.035
CAAGGCTGGG	1.02 ± 0.049
GCGAAGGTCT	1 ± 0.014
ACGAAGATTT	1.03 ± 0.066
GAAGTTGCGA	0.9835 ± 0.0091
TATGGACATT	1.03 ± 0.011
TCTATGTTAT	0.999 ± 0.027
GGGGCCTTGG	1.01 ± 0.022
TGTAGTCCTT	0.949 ± 0.015
AGGTTAACAG	0.9909 ± 0.0073
CACTTAAGGC	1.05 ± 0.072
GGGTGGTATT	1.03 ± 0.013
ACGAGGTTTT	1.03 ± 0.042
ATTGTGAACG	1 ± 0.042
AGTGTGGAAT	0.954 ± 0.011
GTATGGGCGG	0.991 ± 0.035
TACCTATTGG	0.9974 ± 0.0039
AGGTTGAGAG	0.9515 ± 0.0075
CGATTGGGTC	0.999 ± 0.013
GTGATGGAAA	0.964 ± 0.016
TTTTTAGTAG	1.01 ± 0.03
TTATGGGACA	1.026 ± 0.0097

Sequence	switch fluorescence ratio
CGAGATGTGG	1.02 ± 0.011
GTTGTAGGTT	0.966 ± 0.023
TTATTACGTG	1.01 ± 0.023
ACGTGTTAAT	1.005 ± 0.0017
CGGTTAATTC	1.012 ± 0.0028
GCAGGGACAA	1.01 ± 0.018
AACAGGGAAG	1.02 ± 0.012
TTAAATTACC	1.05 ± 0.032
ATAGGGGGCT	0.9892 ± 0.0096
GATGCTGGCG	1.01 ± 0.052
TGTTAGGGAT	1.01 ± 0.034
ATTCCAATTT	1.08 ± 0.035
TGTAGATTTT	0.981 ± 0.011
AACCGGGGAC	1.31 ± 0.23
TAGTGTCAGG	0.988 ± 0.038
AAGGGCCTTC	1.025 ± 0.0071
TCGTTCGGCA	1.06 ± 0.032
ATCGGTAATT	0.997 ± 0.029
ATCCTAGTTT	1.016 ± 0.00087
